Measurements: patent US20100311696A1, “TOPICAL SKIN TREATMENT COMPOSITION” (priority 2002, published 2010)

Tests used:
[1] = Skin penetration after topical application of the somatotropin composition; assay type: in vivo; conditions: composition topically applied
Description: (§1) A drug delivery composition formulated with somatotropin was formulated in one trial with 85% phosphatidylcholine to which lipoic acid and ascorbyl palmitate were added.

[2] = Dispersion and stability of somatotropin in phosphatidylcholine; assay type: physicochemical; conditions: 85% phosphatidylcholine with lipoic acid and ascorbyl palmitate
Description: as §1

[3] = RP-HPLC and HPCE stability analyses of insulin standards and stable insulin compositions, Example 2; assay type: physicochemical; conditions: stored at room temperature
[4] = RP-HPLC and HPCE stability analyses of insulin standards and insulin compositions, Example 1; assay type: physicochemical; conditions: stored at room temperature
Description: This mixture was then divided in half, half of which was stored at 4° C., and the other half stored at room temperature.

With “Somatotropin: Somatotropin (pituitary growth hormone) formulated with 85% phosphatidylcholine, lipoic acid and ascorbyl palmitate” the skin penetration [1] was “penetrate the skin well”, the dispersion in phosphatidylcholine [2] was “readily dispersed” and the stability in phosphatidylcholine [2] was “remained stable”.
For “insulin standards: Insulin in 0.01 N HCl: 1 mg/ml Sigma insulin (Example 1), 5 mg/ml (Example 2)”, the “time at which denaturing started (RP-HPLC and HPCE)” value [3] was no more than 1 week and the “time at which denaturing started (RP-HPLC and HPCE)” value [4] was no more than 7 days.
